± gives the standard deviation of the averaged measurements.
What follows are sequences tested on ATP (assay: switch fluorescence ratio, 500 uM ATP over buffer (Cy3 cluster intensity, sum of 5 cycles each) (fold (ratio)); higher = stronger signal-on switching upon ATP binding; sequences stand for … in TCGTCGGCAGCGTCAGATGTGTATAAGAGACAGTTTTTTTTTTTTTTTTTTTTTTTTT…TC). Conditions: aptamer strand: ATP DNA aptamer (quencher-CACCTGGGGGAGTATTGCGGAGGAAGG + anchor), 100 nM annealed; ATP concentration: 500 uM.
How it was run: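 Five buffer/ATP imaging cycles were run on Cy3-labelled switching-strand clusters on a modified Illumina MiSeq flow-cell, with NaOH stripping and re-annealing between cycles. In each cycle, clusters annealed to 100 nM quencher-labelled ATP aptamer were imaged in selection buffer, then after 15 min with 500 uM ATP at 22 °C. Per cluster, the fluorescence ratio is summed target-cycle over summed buffer-cycle Cy3 intensity, averaged per switch-domain sequence. Only clusters within 100-1000 RFU were kept.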
Work on CTTGGGGATC yielded a switch fluorescence ratio of 0.979 ± 0.013. CTTGGGGTTA was tested, and the switch fluorescence ratio was 0.998 ± 0.023. Work on CTTGTAAATT yielded a switch fluorescence ratio of 0.983 ± 0.035. CTTGTACTAA gave a switch fluorescence ratio of 1.012 ± 0.0062. CTTGTATAGC gave a switch fluorescence ratio of 0.992 ± 0.028. Sequence CTTGTCATCT has a switch fluorescence ratio of 1.005 ± 0.0061. CTTGTGAGGA was tested, and the switch fluorescence ratio was 1 ± 0.036. For CTTGTGGCGT, the switch fluorescence ratio was 1 ± 0.049. CTTGTGTACG gave a switch fluorescence ratio of 0.965 ± 0.02. For CTTGTGTGTT, the switch fluorescence ratio was 0.993 ± 0.057. With CTTTAAGGGA the switch fluorescence ratio was 0.9875 ± 0.0035. CTTTACAGGG gave a switch fluorescence ratio of 1 ± 0.064. Work on CTTTACTTTT yielded a switch fluorescence ratio of 1.014 ± 0.0061. Sequence CTTTATGCGG has a switch fluorescence ratio of 0.99361 ± 0.00077. With CTTTATGTCT the switch fluorescence ratio was 1 ± 0.033. With CTTTGAGCGA the switch fluorescence ratio was 1.11 ± 0.032. Sequence CTTTGATTGA has a switch fluorescence ratio of 0.9806 ± 0.0047. CTTTGCACGA gave a switch fluorescence ratio of 1.1 ± 0.0077. CTTTGTAGGG gave a switch fluorescence ratio of 1.008 ± 0.0029. With CTTTGTAGTA the switch fluorescence ratio was 0.977 ± 0.034. With CTTTGTGGGG the switch fluorescence ratio was 1.01 ± 0.029. CTTTTAACTC showed a switch fluorescence ratio of 1.01 ± 0.024. CTTTTAATAG showed a switch fluorescence ratio of 1.08 ± 0.057. CTTTTACATG was tested, and the switch fluorescence ratio was 1.003 ± 0.0095. Sequence CTTTTAGAAC has a switch fluorescence ratio of 0.986 ± 0.027. Work on CTTTTCAGGT yielded a switch fluorescence ratio of 0.998 ± 0.019. In the case of CTTTTCTGAT, the switch fluorescence ratio is reported as 0.993 ± 0.04. CTTTTCTGTT showed a switch fluorescence ratio of 0.9861 ± 0.0085. In the case of CTTTTGAGGA, the switch fluorescence ratio is reported as 0.9952 ± 0.0042. Work on CTTTTGGGCG yielded a switch fluorescence ratio of 1.01 ± 0.056. CTTTTTATGT was tested, and the switch fluorescence ratio was 0.96 ± 0.016. CTTTTTGACT gave a switch fluorescence ratio of 1.01 ± 0.028. Sequence CTTTTTGGAC has a switch fluorescence ratio of 0.994 ± 0.071. For CTTTTTGGGA, the switch fluorescence ratio was 0.987 ± 0.012. Work on CTTTTTGTTG yielded a switch fluorescence ratio of 1.03 ± 0.031. CTTTTTTAAT gave a switch fluorescence ratio of 0.982 ± 0.012. For CTTTTTTGTT, the switch fluorescence ratio was 1 ± 0.021. With CTTTTTTTGG the switch fluorescence ratio was 1 ± 0.022. Sequence GAAAAAAGGA has a switch fluorescence ratio of 0.981 ± 0.028. Sequence GAAAAACTGT has a switch fluorescence ratio of 1.06 ± 0.021. GAAAAAGGAG gave a switch fluorescence ratio of 1 ± 0.018. Work on GAAAAAGGCG yielded a switch fluorescence ratio of 1.01 ± 0.043. GAAAAAGTCG showed a switch fluorescence ratio of 0.997 ± 0.042. In the case of GAAAACATAG, the switch fluorescence ratio is reported as 1.01 ± 0.02. Work on GAAAACTTAA yielded a switch fluorescence ratio of 1.029 ± 0.006. In the case of GAAAAGCATG, the switch fluorescence ratio is reported as 0.988 ± 0.043. Sequence GAAAAGGGAG has a switch fluorescence ratio of 0.974 ± 0.032. For GAAAATAGAT, the switch fluorescence ratio was 0.9663 ± 0.0028. For GAAAATTAGT, the switch fluorescence ratio was 1.016 ± 0.0023. GAAAATTTTT gave a switch fluorescence ratio of 1.06 ± 0.044. With GAAACAGTGT the switch fluorescence ratio was 0.9732 ± 0.0046. Sequence GAAACGGATG has a switch fluorescence ratio of 0.993 ± 0.041. GAAACTAGTT showed a switch fluorescence ratio of 0.992 ± 0.013. In the case of GAAACTTAGG, the switch fluorescence ratio is reported as 1.01 ± 0.019. GAAAGAAGTC gave a switch fluorescence ratio of 1.05 ± 0.02. GAAAGAGAGT gave a switch fluorescence ratio of 0.987 ± 0.023. GAAAGATTAT showed a switch fluorescence ratio of 1.03 ± 0.02. GAAAGCCTTT gave a switch fluorescence ratio of 1 ± 0.012. GAAAGCGGCT gave a switch fluorescence ratio of 1.032 ± 0.0089. For GAAAGGCAAA, the switch fluorescence ratio was 1.025 ± 0.0026. GAAAGGCAGA was tested, and the switch fluorescence ratio was 1.01 ± 0.01. Work on GAAAGGGCTC yielded a switch fluorescence ratio of 1.09 ± 0.069. With GAAAGGGGAT the switch fluorescence ratio was 0.99 ± 0.018. For GAAAGGGGGG, the switch fluorescence ratio was 1.04 ± 0.098. Work on GAAAGGGGTG yielded a switch fluorescence ratio of 1.02 ± 0.064. For GAAAGTGCAA, the switch fluorescence ratio was 1.09 ± 0.02. Work on GAAAGTTTGG yielded a switch fluorescence ratio of 1.01 ± 0.017. For GAAATACGGG, the switch fluorescence ratio was 1.09 ± 0.043. In the case of GAAATATCAA, the switch fluorescence ratio is reported as 0.974 ± 0.039. GAAATCATCA showed a switch fluorescence ratio of 0.96 ± 0.025. With GAAATGTCGG the switch fluorescence ratio was 1.02 ± 0.028. GAAATGTGTT was tested, and the switch fluorescence ratio was 1 ± 0.056. GAAATTAAGT gave a switch fluorescence ratio of 1.02 ± 0.045. In the case of GAAATTAATA, the switch fluorescence ratio is reported as 0.993 ± 0.027. GAAATTGGGA gave a switch fluorescence ratio of 1.08 ± 0.12. GAAATTTAAA gave a switch fluorescence ratio of 0.99756 ± 0.00083. Sequence GAAATTTACT has a switch fluorescence ratio of 0.991 ± 0.053. Sequence GAAATTTTCC has a switch fluorescence ratio of 1.35 ± 0.077. In the case of GAACAAGGGA, the switch fluorescence ratio is reported as 1.004 ± 0.0086. Sequence GAACACTTCT has a switch fluorescence ratio of 1.05 ± 0.014. GAACAGTCCG showed a switch fluorescence ratio of 1.051 ± 0.0039. For GAACATCTCG, the switch fluorescence ratio was 0.993 ± 0.035. GAACGAAAGG showed a switch fluorescence ratio of 1.03 ± 0.042. GAACGACCGC was tested, and the switch fluorescence ratio was 1.34 ± 0.065. GAACGGACAC was tested, and the switch fluorescence ratio was 1.45 ± 0.015. For GAACGGCATG, the switch fluorescence ratio was 1.04 ± 0.015. For GAACGGCCGG, the switch fluorescence ratio was 1.004 ± 0.0092. GAACTACAGG was tested, and the switch fluorescence ratio was 0.987 ± 0.041. Sequence GAACTCTACT has a switch fluorescence ratio of 1.14 ± 0.044. In the case of GAACTGGGGC, the switch fluorescence ratio is reported as 0.942 ± 0.076. GAAGAAAACT was tested, and the switch fluorescence ratio was 1.08 ± 0.014. With GAAGAACGAA the switch fluorescence ratio was 1.022 ± 0.004. In the case of GAAGACAGCG, the switch fluorescence ratio is reported as 1.07 ± 0.024. In the case of GAAGAGAGGG, the switch fluorescence ratio is reported as 1.016 ± 0.0092. For GAAGAGAGGT, the switch fluorescence ratio was 0.9901 ± 0.0037. Work on GAAGAGGAGG yielded a switch fluorescence ratio of 1.04 ± 0.011. With GAAGAGGGGG the switch fluorescence ratio was 0.991 ± 0.043. GAAGAGTCGT was tested, and the switch fluorescence ratio was 0.992 ± 0.064. GAAGATGTAG gave a switch fluorescence ratio of 0.9558 ± 0.0033. Work on GAAGATTGGT yielded a switch fluorescence ratio of 0.981 ± 0.028. In the case of GAAGCACGCC, the switch fluorescence ratio is reported as 1.45 ± 0.0069. With GAAGCCGGGG the switch fluorescence ratio was 0.9839 ± 0.0083. With GAAGCGTTTG the switch fluorescence ratio was 0.98 ± 0.039. GAAGGAGTGC showed a switch fluorescence ratio of 1.07 ± 0.018. Sequence GAAGGAGTGG has a switch fluorescence ratio of 1.027 ± 0.01. GAAGGCAGTC showed a switch fluorescence ratio of 1.13 ± 0.04. For GAAGGCAGTG, the switch fluorescence ratio was 1 ± 0.011. GAAGGCGTTT showed a switch fluorescence ratio of 0.9778 ± 0.0032. Sequence GAAGGGAATG has a switch fluorescence ratio of 1.01 ± 0.017. Sequence GAAGGGACGT has a switch fluorescence ratio of 1.07 ± 0.026. Sequence GAAGGGCATA has a switch fluorescence ratio of 1.02 ± 0.019. For GAAGGGCATC, the switch fluorescence ratio was 0.989 ± 0.043. For GAAGGGCGGA, the switch fluorescence ratio was 1.018 ± 0.0045. Sequence GAAGGGCTGT has a switch fluorescence ratio of 0.993 ± 0.029. Sequence GAAGGGGTCA has a switch fluorescence ratio of 0.9904 ± 0.0089. In the case of GAAGGGTAAC, the switch fluorescence ratio is reported as 1.03 ± 0.018. GAAGGTATTG showed a switch fluorescence ratio of 0.977 ± 0.013. For GAAGGTCCAC, the switch fluorescence ratio was 1.017 ± 0.0078. Sequence GAAGGTGGCT has a switch fluorescence ratio of 1.01 ± 0.026. GAAGTAGCGA showed a switch fluorescence ratio of 1.05 ± 0.015. Work on GAAGTAGGAG yielded a switch fluorescence ratio of 1.01 ± 0.032. GAAGTCCAGA gave a switch fluorescence ratio of 1.01 ± 0.07. GAAGTCCGGG was tested, and the switch fluorescence ratio was 0.9871 ± 0.0048. Work on GAAGTCTTAA yielded a switch fluorescence ratio of 1 ± 0.033. Work on GAAGTGAGTT yielded a switch fluorescence ratio of 1 ± 0.018. In the case of GAAGTGATGG, the switch fluorescence ratio is reported as 1.135 ± 0.008. GAAGTGGCTT gave a switch fluorescence ratio of 0.9801 ± 0.0014. For GAAGTGGGTT, the switch fluorescence ratio was 0.989 ± 0.024. In the case of GAAGTTCAGG, the switch fluorescence ratio is reported as 1.03 ± 0.018. GAAGTTTGTA showed a switch fluorescence ratio of 0.992 ± 0.022. GAATAAAAAC gave a switch fluorescence ratio of 1.01 ± 0.013. GAATAAAAGC was tested, and the switch fluorescence ratio was 0.9901 ± 0.0063. With GAATAAAATA the switch fluorescence ratio was 1.02 ± 0.039. GAATAGGTTA showed a switch fluorescence ratio of 0.983 ± 0.026. Sequence GAATAGTCAG has a switch fluorescence ratio of 0.978 ± 0.033. GAATATCAAG gave a switch fluorescence ratio of 0.9871 ± 0.0064. For GAATATGCCG, the switch fluorescence ratio was 0.972 ± 0.019. With GAATATGGGT the switch fluorescence ratio was 0.995 ± 0.015. In the case of GAATCGATTT, the switch fluorescence ratio is reported as 1.02 ± 0.027. With GAATCGTTTT the switch fluorescence ratio was 0.9553 ± 0.0068. With GAATGAAAAT the switch fluorescence ratio was 0.997 ± 0.022. Sequence GAATGAACCA has a switch fluorescence ratio of 0.998 ± 0.049. In the case of GAATGACAGT, the switch fluorescence ratio is reported as 0.978 ± 0.018. Sequence GAATGACCGT has a switch fluorescence ratio of 1.01 ± 0.024. With GAATGACGGA the switch fluorescence ratio was 1.02 ± 0.057. Work on GAATGATGGC yielded a switch fluorescence ratio of 0.939 ± 0.065. GAATGCAAAG gave a switch fluorescence ratio of 1.03 ± 0.041. With GAATGGGATG the switch fluorescence ratio was 1.002 ± 0.0023. GAATGGGGGC was tested, and the switch fluorescence ratio was 0.98 ± 0.036. GAATGGGGGT gave a switch fluorescence ratio of 0.982 ± 0.02. Sequence GAATGGGTGA has a switch fluorescence ratio of 0.983 ± 0.028. GAATGGTCCC gave a switch fluorescence ratio of 1.02 ± 0.012. With GAATGGTGGG the switch fluorescence ratio was 0.988 ± 0.019.

Reference: the supplement of paper PMC10126150
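Note: ATP exposure 15 min at 22 °C before imaging.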
